The source of these data is PMC4595758, “Redox-switch regulatory mechanism of thiolase from Clostridium acetobutylicum” (Nature Communications, 2015).

Series [1] deals with the molecule itself. Nature of the series: crystal structure; oxidized form of CaTHL, 1.77 Å, space group P2(1)2(1)2, two molecules per asymmetric unit, tetramer generated by crystallographic symmetry; crystals from 100 mM phosphate-citrate pH 4.2, 10% PEG 3,350, 200 mM sodium chloride at 293 K.
Series [2] concerns the molecule itself. Kind of series: crystal structure; CaTHL C378S (reduced form, 10 mM DTT) crystals soaked with 30 mM CoA for 30 min, 1.90 Å, space group P2(1)2(1)2.

B1: Clostridium acetobutylicum thiolase (CaTHL), wild type, oxidized form (enzyme, UniProt P45359 1-392, looked up)
chain: MKEVVIASAVRTAIGSYGKSLKDVPAVDLGATAIKEAVKKAGIKPEDVNEVILGNVLQAGLGQNPARQASFKAGLPVEIPAMTINKVCGSGLRTVSLAAQIIKAGDADVIIAGGMENMSRAPYLANNARWGYRMGNAKFVDEMITDGLWDAFNDYHMGITAENIAERWNISREEQDEFALASQKKAEEAIKSGQFKDEIVPVVIKGRKGETVVDTDEHPRFGSTIEGLAKLKPAFKKDGTVTAGNASGLNDCAAVLVIMSAEKAKELGVKPLAKIVSYGSAGVDPAIMGYGPFYATKAAIEKAGWTVDELDLIESNEAFAAQSLAVAKDLKFDMNKVNVNGGAIALGHPIGASGARILVTLVHAMQKRDAKKGLATLCIGGGQGTAILLEKC
notes: Thiolase (acetyl-CoA acetyltransferase) of Clostridium acetobutylicum, amino acid residues 1-392, amplified from the chromosome and cloned into pET30a; In the crystal (oxidized form) a disulfide bond joins Cys88 and Cys378, and residues 280-292 are disordered; Two molecules per asymmetric unit; the tetramer is generated by crystallographic symmetry; also called C. acetobutylicum thiolase; type II …
As usually defined, the stoichiometry N is the number of molecules, sites or subunits per partner or assembly. Turning to B1, the “stoichiometry N” value in series [1] was determined as 4.

B2: Clostridium acetobutylicum thiolase C378S mutant (reduced form of CaTHL) (enzyme, UniProt P45359 1-392, looked up)
chain: MKEVVIASAVRTAIGSYGKSLKDVPAVDLGATAIKEAVKKAGIKPEDVNEVILGNVLQAGLGQNPARQASFKAGLPVEIPAMTINKVCGSGLRTVSLAAQIIKAGDADVIIAGGMENMSRAPYLANNARWGYRMGNAKFVDEMITDGLWDAFNDYHMGITAENIAERWNISREEQDEFALASQKKAEEAIKSGQFKDEIVPVVIKGRKGETVVDTDEHPRFGSTIEGLAKLKPAFKKDGTVTAGNASGLNDCAAVLVIMSAEKAKELGVKPLAKIVSYGSAGVDPAIMGYGPFYATKAAIEKAGWTVDELDLIESNEAFAAQSLAVAKDLKFDMNKVNVNGGAIALGHPIGASGARILVTLVHAMQKRDAKKGLATLSIGGGQGTAILLEKC
notes: Thiolase (acetyl-CoA acetyltransferase) of Clostridium acetobutylicum, amino acid residues 1-392, with the C378S mutation made by site-directed mutagenesis; Crystallized with 10 mM DTT; For the CoA complex the crystals were soaked with 30 mM CoA for 30 min; also called CaTHL C378S mutant
Turning to B2, the binding result in series [2] is listed as “binds”.
